Test results as given in article PMC7611114 (Nature chemistry, 2021).

Molecular target: the molecule itself
Test: crystal structure

Ac-GKKSAWATVISALATVISALATVISAWATVG-NH2 [K2-CCTM-VbIc] was tested. Which “stoichiometry N” value did it give?
The value was 8.
